Results as given in the supplement of paper PMC6757056.
± gives the standard deviation of the averaged measurements.

B1: library; a variant is named by its letters at N, in order (parent)
chain: GCUGUCACCGGUGUAUUACCCUAGUGGUCGACCGGUCUGAUGAGUCUNNNNNNAGACGAAACAGC

Tests used:
[1] = variants of: B1; assay: normalized RNA/DNA level with ligand (relative to sTRSVctl = 100) (log10 (% of sTRSVctl)); ligand: hypoxanthine (xanthine aptamer); higher = less ribozyme self-cleavage, higher mRNA level; settings: ligand concentration (+) RNA-Seq: 5 mM, HEK293T, reporter: mCherry (pCS4076), ligand present: yes
Summary of the method: (§1)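 HEK293T cells received ligand, where used, 1 h before being transfected with 4 µg per 6-well well of library plasmids encoding reporter-linked ribozyme switches. After 72 h, RNA was extracted with EDTA and sequenced. RNA level was derived from RNA reads per DNA read, normalized to a spiked-in non-cleaving sequence or the top sequences, then scaled and log-transformed. Values were ×100 then log10, the top set was 25 sequences, and the minimum was 100 DNA reads.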

[2] = variants of: B1; assay: normalized RNA/DNA level without ligand (relative to sTRSVctl = 100) (log10 (% of sTRSVctl)); ligand: hypoxanthine (xanthine aptamer); higher = less ribozyme self-cleavage, higher mRNA level; settings: HEK293T, reporter: mCherry (pCS4076), ligand present: no
Summary of the method: as §1

Variant | normalized RNA/DNA level with ligand (log10) [1] | normalized RNA/DNA level without ligand (log10) [2]
CGCCCG | 1.958 ± 0.0098 | 1.915 ± 0.005
GGCCCG | 1.974 ± 0.011 | 1.88 ± 0.03
UGCCCG | 1.9 ± 0.037 | 1.831 ± 0.014
CGCCCU | 2.077 ± 0.0049 | 1.952 ± 0.014
GGCCCU | 2.037 ± 0.02 | 2 ± 0.034
UGCCCU | 2.003 ± 0.013 | 1.94 ± 0.028
AGCCCU | 1.94 ± 0.03 | 1.932 ± 0.013
CGCCGA | 2.04 ± 0.052 | 1.89 ± 0.042
GGCCGA | 1.98 ± 0.038 | 1.854 ± 0.014
UGCCGA | 1.94 ± 0.024 | 1.678 ± 0.014
CGCCGC | 1.97 ± 0.063 | 1.923 ± 0.0072
GGCCGC | 1.879 ± 0.014 | 1.7 ± 0.06
UGCCGC | 2.01 ± 0.032 | 1.927 ± 0.014
AGCCGC | 1.9 ± 0.096 | 1.84 ± 0.0076
CGCCGG | 1.913 ± 0.0023 | 1.61 ± 0.065
GGCCGG | 1.95 ± 0.039 | 1.84 ± 0.026
CGCCGU | 1.986 ± 0.014 | 2 ± 0.043
UGCCGU | 1.9 ± 0.027 | 1.74 ± 0.026
AGCCGU | 1.92 ± 0.03 | 1.69 ± 0.024
CGCCUA | 1.98 ± 0.092 | 1.848 ± 0.014
GGCCUA | 1.98 ± 0.063 | 1.98 ± 0.026
AGCCUA | 1.987 ± 0.019 | 1.87 ± 0.028
GGCCUC | 1.99 ± 0.13 | 1.96 ± 0.084
AGCCUC | 2.01 ± 0.082 | 1.959 ± 0.019

Variant | normalized RNA/DNA level with ligand (log10) [1] | normalized RNA/DNA level without ligand (log10) [2]
CGCCUG | 2 ± 0.053 | 1.9 ± 0.04
CGCCUU | 1.94 ± 0.033 | 1.92 ± 0.068
GGCCUU | 1.975 ± 0.013 | 1.968 ± 0.011
UGCCUU | 1.939 ± 0.0041 | 1.9 ± 0.093
CGCGAA | 1.87 ± 0.029 | 1.7 ± 0.028
GGCGAA | 1.92 ± 0.037 | 1.801 ± 0.017
UGCGAA | 1.86 ± 0.021 | 1.724 ± 0.013
CGCGAC | 1.97 ± 0.067 | 1.75 ± 0.059
GGCGAC | 1.93 ± 0.12 | 1.83 ± 0.021
UGCGAC | 1.96 ± 0.0073 | 1.77 ± 0.028
CGCGAG | 1.84 ± 0.06 | 1.67 ± 0.011
GGCGAG | 1.82 ± 0.021 | 1.47 ± 0.087
UGCGAG | 1.868 ± 0.0049 | 1.658 ± 0.009
CGCGAU | 1.904 ± 0.0019 | 1.79 ± 0.036
UGCGAU | 1.933 ± 0.011 | 1.79 ± 0.081
AGCGAU | 1.9 ± 0.037 | 1.73 ± 0.076
CGCGCA | 1.97 ± 0.063 | 1.81 ± 0.036
UGCGCA | 1.94 ± 0.034 | 1.82 ± 0.052
AGCGCA | 1.94 ± 0.019 | 1.758 ± 0.0078
GGCGCC | 2.004 ± 0.0022 | 1.93 ± 0.024
UGCGCC | 1.989 ± 0.0081 | 1.93 ± 0.065
AGCGCC | 1.93 ± 0.034 | 1.86 ± 0.04
CGCGCG | 1.9548 ± 0.00063 | 1.78 ± 0.035
GGCGCG | 1.95 ± 0.028 | 1.81 ± 0.0088

Variant | normalized RNA/DNA level with ligand (log10) [1] | normalized RNA/DNA level without ligand (log10) [2]
CGCGCU | 1.92 ± 0.076 | 1.93 ± 0.062
GGCGCU | 1.973 ± 0.003 | 2.03 ± 0.022
UGCGCU | 1.966 ± 0.0057 | 1.93 ± 0.023
CGCGGA | 2 ± 0.046 | 1.863 ± 0.0046
CGCGGC | 1.99 ± 0.042 | 1.92 ± 0.034
GGCGGC | 1.885 ± 0.015 | 1.525 ± 0.0082
AGCGGC | 1.959 ± 0.012 | 1.86 ± 0.042
GGCGGG | 1.93 ± 0.034 | 1.83 ± 0.061
UGCGGG | 1.98 ± 0.11 | 1.754 ± 0.0048
CGCGGU | 1.96 ± 0.025 | 1.87 ± 0.026
GGCGGU | 1.957 ± 0.014 | 1.949 ± 0.017
UGCGGU | 1.905 ± 0.01 | 1.742 ± 0.0036
AGCGGU | 1.91 ± 0.024 | 1.55 ± 0.049
GGCGUA | 1.908 ± 0.015 | 1.858 ± 0.00033
AGCGUA | 1.94 ± 0.027 | 1.77 ± 0.034
CGCGUC | 1.97 ± 0.075 | 2.01 ± 0.061
GGCGUC | 1.94 ± 0.073 | 1.901 ± 0.014
UGCGUC | 1.989 ± 0.0044 | 2.031 ± 0.0052
CGCGUG | 1.97 ± 0.068 | 1.73 ± 0.082
UGCGUG | 1.88 ± 0.027 | 1.68 ± 0.084
CGCGUU | 1.99 ± 0.054 | 1.905 ± 0.0075
GGCGUU | 2.0064 ± 0.00076 | 1.966 ± 0.011
UGCGUU | 1.986 ± 0.0098 | 1.921 ± 0.0049
AGCGUU | 1.93 ± 0.028 | 1.805 ± 0.011

Variant | normalized RNA/DNA level with ligand (log10) [1] | normalized RNA/DNA level without ligand (log10) [2]
CGCUAA | 1.91 ± 0.061 | 1.71 ± 0.028
GGCUAA | 1.94 ± 0.046 | 1.86 ± 0.017
UGCUAA | 1.92 ± 0.066 | 1.832 ± 0.0053
AGCUAA | 1.912 ± 0.0024 | 1.845 ± 0.013
CGCUAC | 1.86 ± 0.041 | 1.74 ± 0.074
GGCUAC | 1.933 ± 0.0082 | 1.79 ± 0.093
UGCUAC | 1.937 ± 0.0075 | 1.847 ± 0.014
GGCUAG | 1.812 ± 0.005 | 1.54 ± 0.039
UGCUAG | 1.94 ± 0.025 | 1.658 ± 0.0069
AGCUAG | 1.83 ± 0.066 | 1.508 ± 0.0088
CGCUAU | 1.91 ± 0.092 | 1.78 ± 0.028
GGCUAU | 1.953 ± 0.0089 | 1.876 ± 0.005
AGCUAU | 1.96 ± 0.012 | 1.825 ± 0.0081
CGCUCA | 2.01 ± 0.059 | 1.905 ± 0.012
AGCUCA | 1.998 ± 0.00082 | 1.895 ± 0.011
CGCUCC | 1.956 ± 0.013 | 1.93 ± 0.027
GGCUCC | 1.989 ± 0.014 | 1.898 ± 0.018
UGCUCC | 1.972 ± 0.002 | 1.94 ± 0.037
AGCUCC | 1.97 ± 0.14 | 1.95 ± 0.034
GGCUCG | 1.98 ± 0.027 | 1.834 ± 0.012
UGCUCG | 1.941 ± 0.016 | 1.77 ± 0.046
CGCUCU | 2.02 ± 0.061 | 1.93 ± 0.048
GGCUCU | 2.03 ± 0.066 | 1.99 ± 0.064
UGCUCU | 1.91 ± 0.042 | 1.949 ± 0.017

Variant | normalized RNA/DNA level with ligand (log10) [1] | normalized RNA/DNA level without ligand (log10) [2]
AGCUCU | 1.96 ± 0.033 | 1.89 ± 0.04
GGCUGA | 2.01 ± 0.032 | 1.87 ± 0.026
GGCUGC | 1.92 ± 0.048 | 1.58 ± 0.039
UGCUGC | 1.972 ± 0.011 | 1.958 ± 0.006
CGCUGG | 1.889 ± 0.0061 | 1.42 ± 0.024
GGCUGG | 1.9543 ± 0.0009 | 1.66 ± 0.048
UGCUGG | 1.95 ± 0.04 | 1.707 ± 0.011
CGCUGU | 1.94 ± 0.06 | 1.9375 ± 0.00087
GGCUGU | 1.96 ± 0.025 | 1.95 ± 0.046
UGCUGU | 1.95 ± 0.0027 | 1.92 ± 0.03
AGCUGU | 1.938 ± 0.0047 | 1.75 ± 0.028
CGCUUA | 1.861 ± 0.0029 | 1.7 ± 0.036
GGCUUA | 1.967 ± 0.014 | 1.88 ± 0.025
UGCUUA | 1.937 ± 0.019 | 1.95 ± 0.046
AGCUUA | 1.91 ± 0.057 | 1.85 ± 0.0089
CGCUUC | 1.996 ± 0.0043 | 1.92 ± 0.14
GGCUUC | 1.99 ± 0.03 | 1.98 ± 0.041
UGCUUC | 1.988 ± 0.0048 | 1.96 ± 0.045
CGCUUG | 1.91 ± 0.07 | 1.93 ± 0.076
GGCUUG | 1.93 ± 0.071 | 1.66 ± 0.04
